{"source": "paper PMC6378684", "about": "(Journal of Molecular Biology, 2019)", "molecules": {"B1": {"name": "Cut7 motor domain (Cut7MD), residues 67–432 of the fission yeast kinesin-5 Cut7, P24339 67-432 (domain or fragment)", "chain": "DENETNINVVVRVRGRTDQEVRDNSSLAVSTSGAMGAELAIQSDPSSMLVTKTYAFDKVFGPEADQLMLFENSVAPMLEQVLNGYNCTIFAYGQTGTGKTYTMSGDLSDSDGILSEGAGLIPRALYQLFSSLDNSNQEYAVKCSYYELYNEEIRDLLVSEELRKPARVFEDTSRRGNVVITGIEESYIKNAGDGLRLLREGSHRRQVAATKCNDLSSRSHSIFTITLHRKVSSGMTDETNSLTINNNSDDLLRASKLHMVDLAGSENIGRSGAENKRARETGMINQSLLTLGRVINALVEKAHHIPYRESKLTRLLQDSLGGKTKTSMIVTVSSTNTNLEETISTLEYAARAKSIRNKPQNNQLVF"}}, "key": {"[1]": {"target": "T1, Cut7MD (fission yeast kinesin-5 Cut7 motor domain) (Schizosaccharomyces pombe, UniProt P24339)", "T1 construct": "monomeric motor domain, residues 67-432, lacks N-terminal extension; His6 tag removed by TEV; expressed in E. coli BL21*(DE3)", "T1 sequence (P24339 67-432)": "B1 chain", "experiment": "cryo-EM structure, […] Å", "type": "binding", "settings": "nucleotide pocket, with Mg; bound to S. pombe microtubules"}, "[2]": {"target": "T1, Cut7MD (fission yeast kinesin-5 Cut7 motor domain)", "experiment": "microtubule-stimulated steady-state ATPase, enzyme-coupled", "type": "biochemical", "settings": "3.8 μM motor; 100 nM mammalian (bovine) microtubules"}, "[3]": {"target": "S. pombe tubulin microtubules (Sp_tub MTs), epothilone-stabilised (S. pombe) (UniProt P04688)", "sequence (P04688 whole entry, chain 1 of 2)": "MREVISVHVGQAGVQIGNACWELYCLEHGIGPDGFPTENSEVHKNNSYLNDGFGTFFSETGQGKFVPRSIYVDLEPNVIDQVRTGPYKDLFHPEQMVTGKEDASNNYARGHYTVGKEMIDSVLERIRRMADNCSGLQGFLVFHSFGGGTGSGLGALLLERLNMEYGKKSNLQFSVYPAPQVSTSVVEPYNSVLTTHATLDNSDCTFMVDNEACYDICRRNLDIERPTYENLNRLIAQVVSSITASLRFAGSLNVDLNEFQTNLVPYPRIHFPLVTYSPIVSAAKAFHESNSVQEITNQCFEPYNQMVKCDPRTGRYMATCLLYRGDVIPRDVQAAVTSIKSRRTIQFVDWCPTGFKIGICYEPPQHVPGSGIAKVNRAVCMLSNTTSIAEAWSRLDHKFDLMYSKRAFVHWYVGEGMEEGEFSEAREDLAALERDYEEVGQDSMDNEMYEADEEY", "sequence (P05219 whole entry, chain 2 of 2, further chain)": "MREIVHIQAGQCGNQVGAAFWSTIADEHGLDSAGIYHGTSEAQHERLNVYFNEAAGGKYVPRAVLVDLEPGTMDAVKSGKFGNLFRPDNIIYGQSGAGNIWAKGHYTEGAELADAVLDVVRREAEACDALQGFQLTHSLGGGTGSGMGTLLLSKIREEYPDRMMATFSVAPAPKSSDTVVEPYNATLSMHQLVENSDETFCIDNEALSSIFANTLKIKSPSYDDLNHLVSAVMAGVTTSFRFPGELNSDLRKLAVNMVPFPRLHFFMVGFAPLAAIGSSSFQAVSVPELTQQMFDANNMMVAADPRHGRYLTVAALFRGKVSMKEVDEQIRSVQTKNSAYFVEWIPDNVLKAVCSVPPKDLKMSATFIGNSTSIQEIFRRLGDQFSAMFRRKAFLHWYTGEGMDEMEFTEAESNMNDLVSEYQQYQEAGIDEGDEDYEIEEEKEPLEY"}, "[4]": {"target": "T1, Cut7MD (fission yeast kinesin-5 Cut7 motor domain)", "experiment": "microtubule-stimulated ATPase, pyruvate kinase / lactate dehydrogenase coupled", "type": "biochemical", "settings": "5 mM ATP; epothilone-stabilised S. pombe microtubules; 1 mM MgCl2, pH 8.0, 32 °C"}, "[5]": {"target": "Mammalian brain tubulin microtubules (Mam_tub MTs), paclitaxel-stabilised (bovine), Q6B856", "sequence (Q6B856 whole entry, looked up)": "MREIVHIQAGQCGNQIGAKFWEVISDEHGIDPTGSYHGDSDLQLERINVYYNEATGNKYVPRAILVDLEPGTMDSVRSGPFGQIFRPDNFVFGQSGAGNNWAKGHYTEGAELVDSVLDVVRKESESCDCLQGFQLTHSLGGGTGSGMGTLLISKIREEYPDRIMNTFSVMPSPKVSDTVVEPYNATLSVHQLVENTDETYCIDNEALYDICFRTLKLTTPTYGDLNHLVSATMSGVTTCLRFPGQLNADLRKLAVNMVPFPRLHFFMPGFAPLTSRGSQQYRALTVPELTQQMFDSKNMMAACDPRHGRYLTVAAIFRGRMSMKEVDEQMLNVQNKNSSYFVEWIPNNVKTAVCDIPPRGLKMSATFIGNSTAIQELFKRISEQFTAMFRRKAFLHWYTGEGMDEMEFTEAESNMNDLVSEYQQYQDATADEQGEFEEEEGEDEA"}}}
{"molecule": "Nc1ncnc2c1ncn2[C@@H]1O[C@H](COP(=O)(O)OP(=O)(O)NP(=O)(O)O)[C@@H](O)[C@H]1O", "note": "[AMPPNP, adenosine 5′-(β,γ-imido)triphosphate]", "values": [{"measurement": "cryo-EM structure, 4.5 Å", "setting": "[1]", "result": "strong density in the nucleotide binding pocket corresponding to bound Mg-AMPPNP"}]}
{"molecule": "N[C@@H](CSC(c1ccccc1)(c1ccccc1)c1ccccc1)C(=O)O", "note": "[STLC, (+)-S-trityl-L-cysteine]", "values": [{"measurement": "% of their uninhibited rates at 2 μM and 20 μM", "setting": "[2]", "result": "Cut7MD is not detectably inhibited by STLC"}]}
{"molecule": "Cut7 motor domain (Cut7MD), residues 67–432 of the fission yeast kinesin-5 Cut7 (from UniProt P24339 67-432) (domain or fragment)", "values": [{"measurement": "K0.5MT of the MT-stimulated steady-state ATPase of Cut7MD (Hanes–Woolf plot)", "setting": "[3]", "result": 13.4, "unit": "nM"}, {"measurement": "K0.5MT of the MT-stimulated steady-state ATPase of Cut7MD (Michaelis–Menten fit)", "setting": "[3]", "result": 13.9, "unit": "nM"}, {"measurement": "Vmax of the MT-stimulated steady-state ATPase of Cut7MD (Hanes–Woolf plot)", "setting": "[3]", "result": 1.17, "unit": "ATP/s"}, {"measurement": "Vmax of the MT-stimulated steady-state ATPase of Cut7MD (Michaelis–Menten fit)", "setting": "[3]", "result": 1.14, "unit": "ATP/s"}]}
{"molecule": "Nc1ncnc2c1ncn2[C@@H]1O[C@H](COP(=O)(O)OP(=O)(O)OP(=O)(O)O)[C@@H](O)[C@H]1O", "note": "[ATP]", "values": [{"measurement": "microtubule-stimulated ATPase, pyruvate kinase / lactate dehydrogenase coupled", "setting": "[4]", "result": "we measured the steady-state ATPase activity of Cut7MD on Sp_tub MTs and Mam_tub MTs"}]}
{"molecule": "B1", "values": [{"measurement": "K0.5MT of the MT-stimulated steady-state ATPase of Cut7MD (Hanes–Woolf plot)", "setting": "[5]", "result": 14.3, "unit": "nM"}, {"measurement": "K0.5MT of the MT-stimulated steady-state ATPase of Cut7MD (Michaelis–Menten fit)", "setting": "[5]", "result": 19.9, "unit": "nM"}, {"measurement": "Vmax of the MT-stimulated steady-state ATPase of Cut7MD (Hanes–Woolf plot)", "setting": "[5]", "result": 1.19, "unit": "ATP/s"}, {"measurement": "Vmax of the MT-stimulated steady-state ATPase of Cut7MD (Michaelis–Menten fit)", "setting": "[5]", "result": 1.25, "unit": "ATP/s"}]}
